Assay results published in article PMC4964339 (Scientific Reports, 2016).

Biological target: T1, human claudin-4 (residues 1-183), tag-free (human, UniProt O14493 1-183)
T1 construct: also called tag-free claudin-4
T1 sequence (looked up): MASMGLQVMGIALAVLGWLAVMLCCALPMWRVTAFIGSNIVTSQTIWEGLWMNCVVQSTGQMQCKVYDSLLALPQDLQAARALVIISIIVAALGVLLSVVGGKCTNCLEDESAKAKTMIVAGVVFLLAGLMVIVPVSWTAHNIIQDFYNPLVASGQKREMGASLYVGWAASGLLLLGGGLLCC
Test: SPR
Conditions: both partners purified

B1: GST-tagged C-CPE (C-terminal fragment of Clostridium perfringens enterotoxin, residues 185-319) (domain or fragment)
chain: RCVLTVPSTDIEKEILDLAAATERLNLTDALNSNPAGNLYDWRSSNSYPWTQKLNLHLTITATGQKYRILASKIVDFNIYSNNFNNLVKLEQSLGDGVKDHYVDISLDAGQYVLVMKANSSYSGNYPYSILFQKF
- Kd: 3.4 nM
